Results from article PMC8791637.

Tests used:
Focal adhesion kinase [1] = target: Focal adhesion kinase (UniProt Q05397)
N-WASP = N-WASP (UniProt O00401)
Nck = Nck (UniProt P16333)
phosphorylated Nephrin = phosphorylated Nephrin (UniProt O60500)
Focal adhesion kinase [2] = target: Focal adhesion kinase (UniProt Q05397); remark: listed apart in the source
His6-sumo-kindlin = His6-sumo-kindlin (UniProt Q96AC1)
Sequence of His6-sumo-kindlin (UniProt Q96AC1) (Q96AC1 whole entry): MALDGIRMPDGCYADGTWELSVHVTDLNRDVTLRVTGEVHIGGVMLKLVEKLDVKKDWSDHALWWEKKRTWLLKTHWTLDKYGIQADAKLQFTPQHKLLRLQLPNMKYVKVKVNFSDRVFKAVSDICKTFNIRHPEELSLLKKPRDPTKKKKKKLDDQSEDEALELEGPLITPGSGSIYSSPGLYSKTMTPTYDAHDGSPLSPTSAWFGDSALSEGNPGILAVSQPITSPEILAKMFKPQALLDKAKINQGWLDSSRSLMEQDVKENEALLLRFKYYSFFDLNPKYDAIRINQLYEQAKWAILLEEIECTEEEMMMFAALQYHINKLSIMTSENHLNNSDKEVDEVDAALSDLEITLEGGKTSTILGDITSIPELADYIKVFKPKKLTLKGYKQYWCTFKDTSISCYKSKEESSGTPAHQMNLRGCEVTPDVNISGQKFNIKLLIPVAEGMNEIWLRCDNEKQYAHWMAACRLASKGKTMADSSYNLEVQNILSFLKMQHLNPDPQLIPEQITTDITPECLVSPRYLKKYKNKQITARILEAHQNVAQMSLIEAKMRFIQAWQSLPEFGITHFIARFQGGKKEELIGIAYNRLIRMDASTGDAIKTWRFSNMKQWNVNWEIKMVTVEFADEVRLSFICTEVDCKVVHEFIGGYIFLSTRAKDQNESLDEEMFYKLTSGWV

Sequence of His6-sumo-kindlin (from UniProt Q96AC1 1-680) (natural protein) (Q96AC1 whole entry): as above
Sequence of Focal adhesion kinase (from UniProt Q05397 1-1052) (enzyme) (Q05397 whole entry): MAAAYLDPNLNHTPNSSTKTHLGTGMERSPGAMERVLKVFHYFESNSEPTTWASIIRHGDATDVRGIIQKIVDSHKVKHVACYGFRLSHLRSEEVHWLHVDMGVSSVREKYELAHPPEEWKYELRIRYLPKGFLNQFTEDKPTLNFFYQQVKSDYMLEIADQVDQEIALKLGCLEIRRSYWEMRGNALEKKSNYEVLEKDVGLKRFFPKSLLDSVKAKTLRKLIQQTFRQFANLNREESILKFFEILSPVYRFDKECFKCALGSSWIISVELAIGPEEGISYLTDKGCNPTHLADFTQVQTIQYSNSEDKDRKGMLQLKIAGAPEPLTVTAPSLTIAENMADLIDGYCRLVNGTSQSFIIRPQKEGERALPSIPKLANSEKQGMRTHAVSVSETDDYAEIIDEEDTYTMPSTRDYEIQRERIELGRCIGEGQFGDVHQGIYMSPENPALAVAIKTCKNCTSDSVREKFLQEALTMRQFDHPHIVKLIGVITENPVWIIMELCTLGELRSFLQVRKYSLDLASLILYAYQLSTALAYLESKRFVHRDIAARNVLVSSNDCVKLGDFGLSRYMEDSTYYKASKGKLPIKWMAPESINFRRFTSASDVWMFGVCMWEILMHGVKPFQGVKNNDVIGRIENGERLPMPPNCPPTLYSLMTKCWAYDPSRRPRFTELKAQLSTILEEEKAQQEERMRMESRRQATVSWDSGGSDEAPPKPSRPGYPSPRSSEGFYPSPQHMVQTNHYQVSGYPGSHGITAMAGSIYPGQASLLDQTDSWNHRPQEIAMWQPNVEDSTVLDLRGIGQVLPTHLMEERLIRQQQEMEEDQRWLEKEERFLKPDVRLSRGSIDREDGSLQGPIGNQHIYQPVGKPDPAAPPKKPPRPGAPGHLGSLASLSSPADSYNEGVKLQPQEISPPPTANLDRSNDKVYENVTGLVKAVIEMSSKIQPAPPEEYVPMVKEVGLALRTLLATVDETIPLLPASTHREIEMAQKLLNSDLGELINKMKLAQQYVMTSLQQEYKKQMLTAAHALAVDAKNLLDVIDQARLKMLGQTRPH
Sequence of Focal adhesion kinase (UniProt Q05397) (Q05397 whole entry): as above
Sequence of Paxillin (P49023 whole entry): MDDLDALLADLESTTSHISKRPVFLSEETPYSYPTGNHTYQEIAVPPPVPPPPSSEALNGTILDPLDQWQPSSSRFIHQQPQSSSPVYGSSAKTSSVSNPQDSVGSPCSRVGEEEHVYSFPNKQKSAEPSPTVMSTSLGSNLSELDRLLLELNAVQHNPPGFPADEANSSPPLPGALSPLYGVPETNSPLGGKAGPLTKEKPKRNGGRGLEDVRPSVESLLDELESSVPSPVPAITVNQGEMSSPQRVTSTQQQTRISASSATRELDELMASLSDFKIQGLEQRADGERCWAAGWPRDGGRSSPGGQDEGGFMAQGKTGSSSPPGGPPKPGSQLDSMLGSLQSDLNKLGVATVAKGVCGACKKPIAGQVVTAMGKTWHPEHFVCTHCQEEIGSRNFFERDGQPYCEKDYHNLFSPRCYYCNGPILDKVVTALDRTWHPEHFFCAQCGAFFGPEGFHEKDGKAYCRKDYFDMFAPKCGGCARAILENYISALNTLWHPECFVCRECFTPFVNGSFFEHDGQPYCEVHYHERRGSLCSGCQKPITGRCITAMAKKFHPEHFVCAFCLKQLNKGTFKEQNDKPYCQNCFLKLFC
Sequence of phosphorylated Nephrin (O60500 23-1241): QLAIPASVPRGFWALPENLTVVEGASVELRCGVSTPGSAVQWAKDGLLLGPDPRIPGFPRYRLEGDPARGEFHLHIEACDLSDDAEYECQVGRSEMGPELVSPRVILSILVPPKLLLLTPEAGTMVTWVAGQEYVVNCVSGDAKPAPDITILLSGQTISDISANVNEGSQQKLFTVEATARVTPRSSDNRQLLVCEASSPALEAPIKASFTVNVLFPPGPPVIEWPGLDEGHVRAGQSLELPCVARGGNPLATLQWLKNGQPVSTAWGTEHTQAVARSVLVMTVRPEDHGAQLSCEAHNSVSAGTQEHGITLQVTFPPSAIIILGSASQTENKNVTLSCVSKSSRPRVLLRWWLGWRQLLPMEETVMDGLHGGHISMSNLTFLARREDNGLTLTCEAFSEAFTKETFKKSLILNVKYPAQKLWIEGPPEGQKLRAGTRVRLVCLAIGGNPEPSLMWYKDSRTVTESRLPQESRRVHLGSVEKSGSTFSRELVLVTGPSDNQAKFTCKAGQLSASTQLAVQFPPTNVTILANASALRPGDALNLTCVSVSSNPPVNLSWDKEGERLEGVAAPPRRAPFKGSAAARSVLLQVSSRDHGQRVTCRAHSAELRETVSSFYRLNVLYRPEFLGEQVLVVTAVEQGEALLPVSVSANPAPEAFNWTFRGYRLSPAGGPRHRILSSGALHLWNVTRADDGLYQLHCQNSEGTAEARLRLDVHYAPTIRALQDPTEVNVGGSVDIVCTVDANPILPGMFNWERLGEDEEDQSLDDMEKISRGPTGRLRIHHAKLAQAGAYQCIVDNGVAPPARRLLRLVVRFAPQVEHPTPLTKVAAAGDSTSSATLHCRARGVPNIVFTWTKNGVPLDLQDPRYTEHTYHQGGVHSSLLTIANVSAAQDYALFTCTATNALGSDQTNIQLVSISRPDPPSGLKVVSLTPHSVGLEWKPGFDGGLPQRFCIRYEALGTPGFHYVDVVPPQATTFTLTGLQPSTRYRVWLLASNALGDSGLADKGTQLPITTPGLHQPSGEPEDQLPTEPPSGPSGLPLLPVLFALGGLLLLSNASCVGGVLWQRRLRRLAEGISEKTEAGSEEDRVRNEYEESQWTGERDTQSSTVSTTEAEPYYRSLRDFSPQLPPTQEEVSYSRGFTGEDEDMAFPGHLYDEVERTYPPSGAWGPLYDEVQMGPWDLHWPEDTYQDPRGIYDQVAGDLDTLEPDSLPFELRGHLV
Sequence of β1 integrin cytoplasmic tail-GFP (P05556 752-798): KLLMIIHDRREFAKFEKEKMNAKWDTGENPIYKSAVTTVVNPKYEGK
Sequence of N-WASP (O00401 whole entry): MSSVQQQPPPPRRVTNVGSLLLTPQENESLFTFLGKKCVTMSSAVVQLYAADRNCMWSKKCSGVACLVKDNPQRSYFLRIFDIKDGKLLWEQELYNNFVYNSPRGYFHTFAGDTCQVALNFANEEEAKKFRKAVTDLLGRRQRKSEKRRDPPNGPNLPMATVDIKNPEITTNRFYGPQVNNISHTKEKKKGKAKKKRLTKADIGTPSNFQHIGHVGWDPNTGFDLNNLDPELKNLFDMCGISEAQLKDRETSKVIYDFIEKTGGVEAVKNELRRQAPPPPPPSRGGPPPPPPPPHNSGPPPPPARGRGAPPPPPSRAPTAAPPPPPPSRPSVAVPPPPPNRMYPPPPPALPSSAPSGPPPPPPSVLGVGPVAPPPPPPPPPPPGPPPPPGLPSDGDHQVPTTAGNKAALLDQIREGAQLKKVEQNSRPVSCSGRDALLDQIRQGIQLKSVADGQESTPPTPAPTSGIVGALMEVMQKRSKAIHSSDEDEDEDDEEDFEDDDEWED

## Focal adhesion kinase (from UniProt Q05397 1-1052) (enzyme)
Focal adhesion kinase [1]
  solution turbidity (absorbance at 350 nm) with increasing concentrations of FAK; concentration from which turbidity rises: 100 nM

## His6-sumo-kindlin (from UniProt Q96AC1 1-680) (natural protein)
N-WASP
  kindlin partition coefficient (PC) in droplets of 5 uM each phosphorylated Nephrin, Nck and N-WASP with 1 uM kindlin (10% Alexa546), lacking pCas: 1
Nck
  kindlin partition coefficient (PC) in droplets of 5 uM each phosphorylated Nephrin, Nck and N-WASP with 1 uM kindlin (10% Alexa546), lacking pCas: 1
Phosphorylated Nephrin
  kindlin partition coefficient (PC) in droplets of 5 uM each phosphorylated Nephrin, Nck and N-WASP with 1 uM kindlin (10% Alexa546), lacking pCas: 1

## Paxillin (from UniProt P49023 1-591) (natural protein)
Focal adhesion kinase [2]
  FAK enrichment (partitioning) in droplets, 1 uM FAK with 1 uM paxillin against 1 uM FAK alone: 2 fold

## β1 integrin cytoplasmic tail-GFP (from UniProt P05556 752-798) (domain or fragment)
His6-sumo-kindlin
  integrin-GFP partition coefficient (PC) in droplets of 1 uM each pCas, Nck, N-WASP, FAK, paxillin and β1 integrin tail with 1 uM kindlin (PC = 1.2 without kindlin): 3
